Source: patent US20240115744A1, “FIBRIN-BINDING COMPOUNDS FOR IMAGING AND TREATMENT” (Collagen Medical, LLC, priority 2019, published 2024)
Blank lines part the entries; values can stand above or below the binder they belong to. Bridges are numbered along the chain shown (N, C = ends). [ ]: non-standard residue; d: D form. The star is where a group is joined. Tyr(3-Cl) = N[C@@H](Cc1ccc(O)c(Cl)c1)C(=O)O; Nicotinoyl(6-F) = O=C(c1ccc(F)nc1)*; Hyp = O=C(O)[C@@H]1C[C@@H](O)CN1

Key:
[1] = molecular target: soluble fibrin fragment DD(E); assay: fluorescence polarization, displacement of the TRITC peptide from DD(E)
[2] = molecular target: soluble fibrin fragment DD(E); assay: fluorescence polarization DD(E) assay

B1: Compound 8 (peptide)
peptide: {Nicotinoyl(6-F)}-Y[dE]C[Hyp][Tyr(3-Cl)]GLCHI[dL]-NH2
modifications: disulfide 3-8
SMILES: CC[C@H](C)[C@H](NC(=O)[C@H](Cc1c[nH]cn1)NC(=O)[C@@H]1CSSC[C@H](NC(=O)[C@@H](CCC(=O)O)NC(=O)[C@H](Cc2ccc(O)cc2)NC(=O)c2ccc(F)nc2)C(=O)N2C[C@H](O)C[C@H]2C(=O)N[C@@H](Cc2ccc(O)c(Cl)c2)C(=O)NCC(=O)N[C@@H](CC(C)C)C(=O)N1)C(=O)N[C@H](CC(C)C)C(N)=O
- Ki [1]: 640 nM

B2: Compound 6 (peptide)
peptide: {Nicotinoyl(6-F)}-[dY][dE]C[Hyp][Tyr(3-Cl)]GLCYIQ-NH2
modifications: disulfide 3-8
SMILES: CC[C@H](C)[C@H](NC(=O)[C@H](Cc1ccc(O)cc1)NC(=O)[C@@H]1CSSC[C@H](NC(=O)[C@@H](CCC(=O)O)NC(=O)[C@@H](Cc2ccc(O)cc2)NC(=O)c2ccc(F)nc2)C(=O)N2C[C@H](O)C[C@H]2C(=O)N[C@@H](Cc2ccc(O)c(Cl)c2)C(=O)NCC(=O)N[C@@H](CC(C)C)C(=O)N1)C(=O)N[C@@H](CCC(N)=O)C(N)=O
- Kd [2]: < 600 nM
- Ki [1]: 340 nM

B3: Compound 3 (peptide)
peptide: {Nicotinoyl(6-F)}-[dY][dE]C[Hyp][Tyr(3-Cl)]GLCHI[dL]-NH2
modifications: disulfide 3-8
SMILES: CC[C@H](C)[C@H](NC(=O)[C@H](Cc1c[nH]cn1)NC(=O)[C@@H]1CSSC[C@H](NC(=O)[C@@H](CCC(=O)O)NC(=O)[C@@H](Cc2ccc(O)cc2)NC(=O)c2ccc(F)nc2)C(=O)N2C[C@H](O)C[C@H]2C(=O)N[C@@H](Cc2ccc(O)c(Cl)c2)C(=O)NCC(=O)N[C@@H](CC(C)C)C(=O)N1)C(=O)N[C@H](CC(C)C)C(N)=O
- Kd [2]: < 600 nM
- Ki [1]: 140 nM

B4: Compound 5 (peptide)
peptide: {Nicotinoyl(6-F)}-Y[dE]C[Hyp][Tyr(3-Cl)]GLCHI[dQ]-NH2
modifications: disulfide 3-8
SMILES: CC[C@H](C)[C@H](NC(=O)[C@H](Cc1c[nH]cn1)NC(=O)[C@@H]1CSSC[C@H](NC(=O)[C@@H](CCC(=O)O)NC(=O)[C@H](Cc2ccc(O)cc2)NC(=O)c2ccc(F)nc2)C(=O)N2C[C@H](O)C[C@H]2C(=O)N[C@@H](Cc2ccc(O)c(Cl)c2)C(=O)NCC(=O)N[C@@H](CC(C)C)C(=O)N1)C(=O)N[C@H](CCC(N)=O)C(N)=O
- Kd [2]: < 600 nM
- Ki [1]: 230 nM

B6: Compound 2 (peptide)
peptide: {Nicotinoyl(6-F)}-[dY][dE]C[Hyp][Tyr(3-Cl)]GLCHIQ-NH2
modifications: disulfide 3-8
SMILES: CC[C@H](C)[C@H](NC(=O)[C@H](Cc1c[nH]cn1)NC(=O)[C@@H]1CSSC[C@H](NC(=O)[C@@H](CCC(=O)O)NC(=O)[C@@H](Cc2ccc(O)cc2)NC(=O)c2ccc(F)nc2)C(=O)N2C[C@H](O)C[C@H]2C(=O)N[C@@H](Cc2ccc(O)c(Cl)c2)C(=O)NCC(=O)N[C@@H](CC(C)C)C(=O)N1)C(=O)N[C@@H](CCC(N)=O)C(N)=O
- Kd [2]: < 600 nM
- Ki [1]: 70 nM

B9: Compound 4 (peptide)
peptide: {Nicotinoyl(6-F)}-Y[dE]C[Hyp][Tyr(3-Cl)]GLCHIQ-NH2
modifications: disulfide 3-8
SMILES: CC[C@H](C)[C@H](NC(=O)[C@H](Cc1c[nH]cn1)NC(=O)[C@@H]1CSSC[C@H](NC(=O)[C@@H](CCC(=O)O)NC(=O)[C@H](Cc2ccc(O)cc2)NC(=O)c2ccc(F)nc2)C(=O)N2C[C@H](O)C[C@H]2C(=O)N[C@@H](Cc2ccc(O)c(Cl)c2)C(=O)NCC(=O)N[C@@H](CC(C)C)C(=O)N1)C(=O)N[C@@H](CCC(N)=O)C(N)=O
- Kd [2]: < 600 nM
- Ki [1]: 180 nM

B11: Compound 7 (peptide)
peptide: {Nicotinoyl(6-F)}-Y[dE]C[Hyp][Tyr(3-Cl)]GLCYIQ-NH2
modifications: disulfide 3-8
SMILES: CC[C@H](C)[C@H](NC(=O)[C@H](Cc1ccc(O)cc1)NC(=O)[C@@H]1CSSC[C@H](NC(=O)[C@@H](CCC(=O)O)NC(=O)[C@H](Cc2ccc(O)cc2)NC(=O)c2ccc(F)nc2)C(=O)N2C[C@H](O)C[C@H]2C(=O)N[C@@H](Cc2ccc(O)c(Cl)c2)C(=O)NCC(=O)N[C@@H](CC(C)C)C(=O)N1)C(=O)N[C@@H](CCC(N)=O)C(N)=O
- Kd [2]: < 600 nM
- Ki [1]: 580 nM

Now from value to binder:

- Ki [1]: 1200 nM
B5: Compound 12 (peptide)
peptide: {Nicotinoyl(6-F)}-Y[dE]C[Hyp][Tyr(3-Cl)]DLCYIQ-NH2
modifications: disulfide 3-8
SMILES: CC[C@H](C)[C@H](NC(=O)[C@H](Cc1ccc(O)cc1)NC(=O)[C@@H]1CSSC[C@H](NC(=O)[C@@H](CCC(=O)O)NC(=O)[C@H](Cc2ccc(O)cc2)NC(=O)c2ccc(F)nc2)C(=O)N2C[C@H](O)C[C@H]2C(=O)N[C@@H](Cc2ccc(O)c(Cl)c2)C(=O)N[C@@H](CC(=O)O)C(=O)N[C@@H](CC(C)C)C(=O)N1)C(=O)N[C@@H](CCC(N)=O)C(N)=O

- Ki [1]: 1250 nM
B7: Compound 13 (peptide)
peptide: {Nicotinoyl(6-F)}-Y[dE]C[Hyp][Tyr(3-Cl)]GLCYI[dQ]-NH2
modifications: disulfide 3-8
SMILES: CC[C@H](C)[C@H](NC(=O)[C@H](Cc1ccc(O)cc1)NC(=O)[C@@H]1CSSC[C@H](NC(=O)[C@@H](CCC(=O)O)NC(=O)[C@H](Cc2ccc(O)cc2)NC(=O)c2ccc(F)nc2)C(=O)N2C[C@H](O)C[C@H]2C(=O)N[C@@H](Cc2ccc(O)c(Cl)c2)C(=O)NCC(=O)N[C@@H](CC(C)C)C(=O)N1)C(=O)N[C@H](CCC(N)=O)C(N)=O

- Ki [1]: 730 nM
B8: Compound 9 (peptide)
peptide: {Nicotinoyl(6-F)}-[dY][dE]C[Hyp][Tyr(3-Cl)]GLCYI[dL]-NH2
modifications: disulfide 3-8
SMILES: CC[C@H](C)[C@H](NC(=O)[C@H](Cc1ccc(O)cc1)NC(=O)[C@@H]1CSSC[C@H](NC(=O)[C@@H](CCC(=O)O)NC(=O)[C@@H](Cc2ccc(O)cc2)NC(=O)c2ccc(F)nc2)C(=O)N2C[C@H](O)C[C@H]2C(=O)N[C@@H](Cc2ccc(O)c(Cl)c2)C(=O)NCC(=O)N[C@@H](CC(C)C)C(=O)N1)C(=O)N[C@H](CC(C)C)C(N)=O

- Ki [1]: 2760 nM
B10: Compound 14 (peptide)
peptide: {Nicotinoyl(6-F)}-Y[dE]C[Hyp][Tyr(3-Cl)][dD]LCYIQ-NH2
modifications: disulfide 3-8
SMILES: CC[C@H](C)[C@H](NC(=O)[C@H](Cc1ccc(O)cc1)NC(=O)[C@@H]1CSSC[C@H](NC(=O)[C@@H](CCC(=O)O)NC(=O)[C@H](Cc2ccc(O)cc2)NC(=O)c2ccc(F)nc2)C(=O)N2C[C@H](O)C[C@H]2C(=O)N[C@@H](Cc2ccc(O)c(Cl)c2)C(=O)N[C@H](CC(=O)O)C(=O)N[C@@H](CC(C)C)C(=O)N1)C(=O)N[C@@H](CCC(N)=O)C(N)=O
